{"source": "patent US12594285B2", "about": "“Compositions and methods for protecting against airborne pathogens and irritants” (APPLIED BIOLOGICAL LABORATORIES, INC., priority 2016, dated 2026)", "molecules": {"B1": {"name": "bovine lactoferrin: bovine form of the glycoprotein lactoferrin, 69% homology to human lactoferrin (protein, UniProt P24627 20-708, looked up)", "Lactotransferrin": "APRKNVRWCTISQPEWFKCRRWQWRMKKLGAPSITCVRRAFALECIRAIAEKKADAVTLDGGMVFEAGRDPYKLRPVAAEIYGTKESPQTHYYAVAVVKKGSNFQLDQLQGRKSCHTGLGRSAGWIIPMGILRPYLSWTESLEPLQGAVAKFFSASCVPCIDRQAYPNLCQLCKGEGENQCACSSREPYFGYSGAFKCLQDGAGDVAFVKETTVFENLPEKADRDQYELLCLNNSRAPVDAFKECHLAQVPSHAVVARSVDGKEDLIWKLLSKAQEKFGKNKSRSFQLFGSPPGQRDLLFKDSALGFLRIPSKVDSALYLGSRYLTTLKNLRETAEEVKARYTRVVWCAVGPEEQKKCQQWSQQSGQNVTCATASTTDDCIVLVLKGEADALNLDGGYIYTAGKCGLVPVLAENRKSSKHSSLDCVLRPTEGYLAVAVVKKANEGLTWNSLKDKKSCHTAVDRTAGWNIPMGLIVNQTGSCAFDEFFSQSCAPGADPKSRLCALCAGDDQGLDKCVPNSKEKYYGYTGAFRCLAEDVGDVAFVKNDTVWENTNGESTADWAKNLNREDFRLLCLDGTRKPVTEAQSCHLAVAPNHAVVSRSDRAAHVKQVLLHQQALFGKNGKNCPDKFCLFKSETKNLLFNDNTECLAKLGGRPTYEEYLGTEYVTAIANLKKCSTSPLLEACAFLTR"}, "B2": {"name": "lactoferrin: glycoprotein of approximately 703 amino acids and approximately 80 kD in exocrine secretions (protein, UniProt P02788 20-710, looked up)", "Lactotransferrin": "GRRRSVQWCAVSQPEATKCFQWQRNMRKVRGPPVSCIKRDSPIQCIQAIAENRADAVTLDGGFIYEAGLAPYKLRPVAAEVYGTERQPRTHYYAVAVVKKGGSFQLNELQGLKSCHTGLRRTAGWNVPIGTLRPFLNWTGPPEPIEAAVARFFSASCVPGADKGQFPNLCRLCAGTGENKCAFSSQEPYFSYSGAFKCLRDGAGDVAFIRESTVFEDLSDEAERDEYELLCPDNTRKPVDKFKDCHLARVPSHAVVARSVNGKEDAIWNLLRQAQEKFGKDKSPKFQLFGSPSGQKDLLFKDSAIGFSRVPPRIDSGLYLGSGYFTAIQNLRKSEEEVAARRARVVWCAVGEQELRKCNQWSGLSEGSVTCSSASTTEDCIALVLKGEADAMSLDGGYVYTAGKCGLVPVLAENYKSQQSSDPDPNCVDRPVEGYLAVAVVRRSDTSLTWNSVKGKKSCHTAVDRTAGWNIPMGLLFNQTGSCKFDEYFSQSCAPGSDPRSNLCALCIGDEQGENKCVPNSNERYYGYTGAFRCLAENAGDVAFVKDVTVLQNTDGNNNEAWAKDLKLADFALLCLDGKRKPVTEARSCHLAMAPNHAVVSRMDKVERLKQVLLHQQAKFGRNGSDCPDKFCLFQSETKNLLFNDNTECLARLHGKTTYEKYLGPQYVAGITNLKKCSTSPLLEACEFLRK"}, "B3": {"name": "soluble ICAM-1: soluble form of intercellular adhesion molecule 1, sole antiviral agent of formulations R3 and R4 (protein, UniProt P05362 28-480, looked up)", "extracellular domain": "QTSVSPSKVILPRGGSVLVTCSTSCDQPKLLGIETPLPKKELLLPGNNRKVYELSNVQEDSQPMCYSNCPDGQSTAKTFLTVYWTPERVELAPLPSWQPVGKNLTLRCQVEGGAPRANLTVVLLRGEKELKREPAVGEPAEVTTTVLVRRDHHGANFSCRTELDLRPQGLELFENTSAPYQLQTFVLPATPPQLVSPRVLEVDTQGTVVCSLDGLFPVSEAQVHLALGDQRLNPTVTYGNDSFSAKASVSVTAEDEGTQRLTCAVILGNQSQETLQTVTIYSFPAPNVILTKPEVSEGTEVTVKCEAHPRAKVTLNGVPAQPLGPRAQLLLKATPEDNGRSFSCSATLEVAGQLIHKNQTRELRVLYGPRLDERDCPGNWTWPENSQQTPMCQAWGNPLPELKCLKDGTFPLPIGESVTVTRDLEGTYLCRARSTQGEVTRKVTVNVLSPRYE", "modifications": "extracellular domain", "notes": "soluble form of intercellular adhesion molecule 1, sole antiviral agent of formulations R3 and R4"}}, "key": {"[1]": {"conditions": "in some studies; cited from earlier work"}, "[2]": {"system": "herpes simplex virus (topical application) and hepatitis C infection", "conditions": "before versus after contact with the virus; cited from earlier work"}, "[3]": {"system": "Human Rhinovirus A16 (clinical strain: QCHRV.16)", "assay": "Apical Rhinovirus replication by quantitative RT-PCR (Example 6)", "type": "cell-based", "conditions": "Example 6, 24 hours pi (D1)"}}, "data": [{"molecule": "B1", "values": [{"measurement": "concentration required for an antimicrobial effect relative to human lactoferrin", "setting": "[1]", "result": "1/10"}]}, {"molecule": "B2", "values": [{"measurement": "protection against viral infection", "setting": "[2]", "result": "protective before contact with the virus but not after"}]}, {"molecule": "B3", "values": [{"measurement": "replication of HRV-A16 virus at D1", "setting": "[3]", "result": "inhibited replication"}]}]}
